Measured values from patent US20040253709A1.

Molecular target: human IgE (human) (UniProt P01854)
Test: Western blots of His tag IPSE incubated with human IgE (100-100,000 ng/ml), compared with IgG; called competitive inhibition experiments in paragraph 33

Substance: recombinant His tag IPSE fusion protein
- fold higher affinity than to IgG: 100 times
